From patent US8158585B2, “Cross-β structure comprising amyloid-binding proteins and methods for detection of the cross-β structure, for modulating cross-β structures fiber formation and modulating cross-β structure-mediated toxicity” (CrossBeta Biosciences B.V., priority 2002, dated 2012)
Where no end group is shown, it is not given here.

Legend:
[1] = Circular dichroism: percentage β-sheet (k2d software); type: physicochemical
Description: UV circular dichroism (CD) spectra of peptide and protein solutions ([…] in H2O) were measured on a JASCO J-810 CD spectropolarimeter (Tokyo, Japan). Averaged absorption spectra of five or ten single measurements from 190-240 nm or from 190-250 nm, for fibrin peptides 85, 86, 87 or for albumin, glycated albumin and human Aβ (16-22), respectively, are recorded. The CD spectrum of Aβ (16-22) was measured as a positive control. Aβ (16-22) readily adopts amyloid fiber conformation with cross-β structure when incubated in H2O^45. For albumin and Aβ (16-22), relative percentage of the secondary structure elements present was estimated using k2d software.^48

tPA = target: T1, tPA (Homo sapiens, UniProt P00750); test: ELISA: binding of tPA to 86-week glycated albumin-AGE preparations; conditions: albumin incubated 86 weeks; 10 mM εACA
T1 construct: purchased Boehringer-Ingelheim (Germany)
Description: Binding of the cross-B structure marker tPA to albumin-AGE was tested using an ELISA setup. […] Therefore, we used tPA binding to these two peptides as positive control. The 86-week glycated samples and controls were coated to Greiner microlon plates (catalogue #655092, Greiner, Frickenhausen, Germany). Wells were blocked with Superblock (Pierce, Rockford, Ill., USA). All subsequent incubations were performed in PBS/0.1% (v/v) Tween 20 for one hour at room temperature while shaking, with volumes of 50 μl per well. After incubation, wells were washed five times with 300 μl PBS/0.1% (v/v) Tween 20. Increasing concentrations of tPA were added in triplicate to coated wells as well as to control wells. During tPA incubations of 86-week incubated samples, at least a 123,000 times molar excess of ε-amino caproic acid (εACA, 10 mM) was added to the solutions. εACA is a lysine analogue and is used to avoid potential binding of tPA to albumin via its kringle 2 domain.^50 Monoclonal antibody 374b (American Diagnostica, Instrumentation laboratory, Breda, The Netherlands) and, subsequently, RAMPO (Dako diagnostics, Glostrup, Denmark) was added to the wells at a concentration of 0.3 μg ml^−1. Bound peroxidase-labeled antibody was visualized using 100 μl of a solution containing 8 mg ortho-phenylene-diamine in 20 ml 50 mM citric acid/100 mM Na2HPO4 pH 5.0 with 0.0175% (v/v) H2O2. Staining was stopped upon adding 50 μl of a 2 M H2SO4 solution. Absorbance was read at 490 nm on a Vmax kinetic microplate reader (Molecular Devices, CA, USA). Background signals from non-coated control wells were substracted from corresponding coated wells.

Aβ fibrils = target: T2, Aβ fibrils (Homo sapiens, UniProt P05067); test: Amyloid pull-down with insoluble Aβ fibers; type: binding; conditions: conditioned BHK medium
T2 construct: Peptide Aβ (1-40), containing amino acids as present in the described human Alzheimer peptide; purchased Pepscan, Inc. (The Netherlands) or peptide synthesis facility at the Netherlands Cancer Institute; host or cells: synthetic peptide
Description: Conditioned medium of BHK cells expressing GST-tagged tPA F, F-EGF, EGF, K1, F-EGF-K1, FXII F, HGFa F, Fn F4, Fn F5, Fn F4-5 and GST was used for amyloid binding assays. At first, constructs were adjusted to approximately equal concentration using Western blots. Qualitative binding of the recombinant fragments were evaluated using a “pull-down” assay. To this end, the recombinantly made fragments were incubated with either Aβ or IAPP fibrils. Since these peptides form insoluble fibers, unbound proteins can be easily removed from the fibers following centrifugation. The pellets containing the bound fragments were subsequently washed several times. Bound fragments were solubilized in SDS-sample buffer and analyzed by PAGE, as were unbound proteins in the supernatant fraction and starting material. The gels were analyzed using immunoblotting analysis with the anti-GST antibody Z-5.

[2] = target: T3, tPA-mediated plasminogen activation (Homo sapiens, UniProt P00750); test: Plasminogen activation assay; type: biochemical; conditions: plasminogen 200 μg ml−1, tPA 200 pM, 5 μM co-factor, S-2251
T3 construct: purchased Boehringer-Ingelheim (Germany)
Description: Plasminogen (200 μg ml^−1) was incubated with tPA (200 pM) in the presence or the absence of a co-factor (5 μM of either endostatin, Aβ (1-40), or one the fibrin-derived peptides 85, 86 and 87). At the indicated time intervals, samples were taken and the reaction was stopped in a buffer containing 5 mM EDTA and 150 mM εACA. After collection of the samples, a chromogenic plasmin substrate S-2251 was added and plasmin activity was determined kinetically in a spectrophotometer at 37° C.

[3] = tested on: differentiated N1E-115 cells; test: N1E-115 cell detachment (methylene blue staining); type: cell-based, mouse; conditions: 24 hours
Description: FIG. 4 is a set of graphs illustrating stimulation of tPA-mediated plasmin formation by Aβ and synergistic stimulation of cell detachment by plasminogen and Aβ. Panel A depicts that plasminogen (200 μg/ml) and tPA (200 pM) were incubated with Aβ (5 μM) or control buffer. Samples were taken from the reaction mixture at the indicated periods of time and plasmin activity was measured by conversion of the chromogenic plasmin substrate S-2251 at 405 nm. […] After 48 hours, the dead cells were washed away and the remaining adherent cells were stained with methylene blue. Plasmin cannot prevent Aβ-induced cell detachment. Panel C illustrates that N1E-115 cells were differentiated and received the indicated concentrations of plasminogen in the presence or absence of 10 μM Aβ. After 24 hours, cell detachment was assessed. […] Panel D is an immunoblot analysis of plasmin formation and laminin degradation. Differentiated N1E-115 cells were treated with or without Aβ (10 μM) in the absence or presence of added plasminogen. Addition of Aβ results in the formation of plasmin (bottom panel) and in degradation of laminin (top panel).
FIG. 5 depicts graphs illustrating that carboxypeptidase B inhibits Aβ-stimulated tPA-mediated plasmin formation and cell detachment. […] Samples were taken from the reaction mixture at the indicated periods of time and plasmin activity was measured by conversion of the chromogenic plasmin substrate S-2251 at 405 nm. The reaction was performed in the absence or the presence of 50 μg ml^−1 carboxypeptidase B (CpB) and in the absence or presence of 3.5 μM carboxypeptidase inhibitor (CPI). CpB greatly attenuates A-stimulated plasmin formation. […] After 24 hours, the cells were photographed. Panel C illustrates that, subsequently, the cells were washed once with PBS and the remaining cells were quantified as percentage-adhered cells by methylene blue staining. In Panel D, the cells were treated as in Panels B and C and medium and cell fractions were collected and analyzed by Western blot using an anti-plasmin(ogen) antibody. Aβ stimulates plasmin formation that is inhibited by CpB.
N1E-115 mouse neuroblastoma cells were routinely cultured in DMEM containing 5% FCS, supplemented with antibiotics. Cells were differentiated into post-mitotic neurons.^52 The cells were exposed to Aβ (50 μg ml^−1) for 24 hours in the presence or absence of 20 μg ml^−1 plasminogen in the presence or absence of 50 μg ml^−1 CpB. Cells were photographed, counted and lysed by the addition of 4× sample buffer (250 mM Tris pH 6.8, 8% SDS, 10% glycerol, 100 mM DTT, 0.01% w/v bromophenol blue) to the medium. The lysate, containing both adherent and floating (presumably dying and/or dead) cells, as well as the culture medium, were analyzed for the presence of plasminogen and plasmin, as well as for laminin, by Western blot analysis using specific antibodies against plasminogen (MoAb 3642, American Diagnostics), laminin (PoAb L9393, Sigma).

Aβ = target: T4, Aβ (Homo sapiens, UniProt P05067); test: Solid-phase binding ELISA of tPA, plasminogen and plasmin to coated Aβ; conditions: Aβ coated onto plastic 96-well plates
T4 construct: Peptide Aβ (1-40), containing amino acids as present in the described human Alzheimer peptide; purchased Pepscan, Inc. or peptide synthesis facility of the Netherlands Cancer Institute; host or cells: chemical synthesis
Description: FIG. 3 is a set of graphs depicting binding of tPA, plasminogen and plasmin to Aβ. Aβ was coated onto plastic 96-well plates. Increasing concentrations of either (A) tPA or (B) plasmin(ogen) were allowed to bind to the immobilized peptide. After extensive washing, tPA and plasmin(ogen) binding was assessed by enzyme-linked immunosorbent assays using anti-tPA and anti-plasminogen antibodies. Binding of (C) tPA and (D) plasmin to Aβ in the presence of 50 mM ε-aminocaproic acid (ε-ACA) was assessed as in A and B.
To test whether tPA, plasminogen and plasmin bind Aβ, solid-phase binding assays were performed. Aβ was coated onto plastic 96-well plates and binding of the peptide to either plasmin(ogen) or to tPA was assessed by overlaying the coated peptide with increasing concentrations of either tPA, plasminogen or plasmin. Binding was assessed using specific antibodies to either plasmin(ogen) or to tPA by performing ELISA. […] However, activated plasminogen (plasmin) does bind to Aβ and does so with a kD of 47 nM. […] To test this, use was made of the lysine analogue ε-aminocaproic acid (εACA) and binding of plasmin and tPA to Aβ was tested in its presence. […] In contrast, εACA has no effect on the tPA-Aβ interaction (FIG. 3, Panel C). Thus, it was concluded that plasmin binds to free lysines that were generated during the incubation period, presumably via its lysine-binding Kringle domain(s). In line with this, the kD of plasminogen Kringle domain binding to free lysines in fibrin is similar to the kD for plasmin binding to Aβ.

T1 sequence (P00750 36-562): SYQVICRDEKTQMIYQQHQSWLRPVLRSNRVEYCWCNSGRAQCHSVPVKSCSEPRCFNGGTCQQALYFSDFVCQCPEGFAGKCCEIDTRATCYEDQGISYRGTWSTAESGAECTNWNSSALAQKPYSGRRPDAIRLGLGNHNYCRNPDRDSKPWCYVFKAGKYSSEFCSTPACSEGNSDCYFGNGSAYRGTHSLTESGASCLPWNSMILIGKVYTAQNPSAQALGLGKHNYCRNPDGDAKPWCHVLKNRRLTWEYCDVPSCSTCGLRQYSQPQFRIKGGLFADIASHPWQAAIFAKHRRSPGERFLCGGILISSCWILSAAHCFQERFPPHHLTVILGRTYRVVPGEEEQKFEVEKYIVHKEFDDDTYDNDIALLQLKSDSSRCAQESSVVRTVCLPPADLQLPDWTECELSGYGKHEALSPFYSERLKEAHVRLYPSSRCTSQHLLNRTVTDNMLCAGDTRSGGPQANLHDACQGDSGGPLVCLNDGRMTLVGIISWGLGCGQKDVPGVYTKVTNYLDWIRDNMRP
T3 sequence (P00750 36-562): as above
T2 sequence (P05067 672-711): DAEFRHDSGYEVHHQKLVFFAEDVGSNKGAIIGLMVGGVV
T4 sequence (P05067 672-711): as above

## Albumin control: albumin incubated with g6p or glyceraldehyde omitted [reference compound]
[1]; incubation time 2 weeks
  β-sheet (%): 0%
[1]; incubation time 23 weeks
  β-sheet (%): 0%

## Albumin-glyceraldehyde: glyceraldehyde-modified albumin
tPA
  binding of amyloid-specific serine protease tPA: bound specifically
[1]; incubation time 2 weeks
  β-sheet (%): 0%

## Aβ (16-22): human Aβ fragment, positive control that adopts amyloid fiber conformation (KLVFFAE) [reference compound]
[1]; no incubation time given
  β-sheet (%): 100%

## EGF-GST: EGF fragment of human tPA with C-terminal GST tag (CSEPRCFNGGTCQQALYFSDFVCQCPEGFAGKCCEID-{GST}; cysteine pairing not given here)
Aβ fibrils
  binding to Aβ fibers (pull-down, Western blot): remain in the supernatant

## KCNTATCATQRLANFLVHSSNNFGAILSSTNVGSNTY (Peptide fl-hIAPP from Homo sapiens)
tPA
  binding of amyloid-specific serine protease tPA: bound specifically
[2]
  stimulation of tPA-mediated plasmin formation: stimulate
[2]; listed as IAPP
  stimulation of tPA-mediated plasmin formation: enhanced

## KRLEVDIDIK (Peptide FP10 from Homo sapiens) [compound 87]
[2]
  stimulation of tPA-mediated plasmin formation: does not

## KRLEVDIDIKIR (Peptide FP12 from Homo sapiens) [compound 86]
[2]
  stimulation of tPA-mediated plasmin formation: stimulate

## KRLEVDIDIKIRS (Peptide FP13 from Homo sapiens) [compound 85]
[2]
  stimulation of tPA-mediated plasmin formation: stimulate

## SNNFGAILSS (Peptide Delta hIAPP from Homo sapiens) [Δ-hIAPP]
[2]
  stimulation of tPA-mediated plasmin formation: stimulate

## SNNLGPVLPP (Peptide Delta mIAPP from Homo sapiens) [Δ-mIAPP]
[2]
  stimulation of tPA-mediated plasmin formation: not

## albumin-glyoxylic acid: albumin incubated 86 weeks with 500 mM glyoxylic acid/100 mM NaCNBH3
tPA
  binding of amyloid-specific serine protease tPA: No tPA binding

## plasminogen: inactive precursor of plasmin, cleaved by tPA
[3]
  cell adhesion in the absence of Aβ: no effect
  minimal levels required to potentiate Aβ-induced cell detachment: 10 to 20 µg/mL
[3]; suboptimal Aβ (10 μM), low plasminogen
  effect on Aβ-induced cell detachment: dramatic potentiating effect
Aβ
  binding to Aβ: No detectable binding

B1: F-EGF-K1-GST: F-EGF-K1 fragment of human tPA with C-terminal GST tag (protein)
chain: SYQVICRDEKTQMIYQQHQSWLRPVLRSNRVEYCWCNSGRAQCHSVPVKSCSEPRCFNGGTCQQALYFSDFVCQCPEGFAGKCCEIDTRATCYEDQGISYRGTWSTAESGAECTNWNSSALAQKPYSGRRPDAIRLGLGNHNYCRNPDRDSKPWCYVFKAGKYSSEFCSTPACSE
modifications: left off: small tags and cut ends; a dimerising Fc or GST
notes: F-EGF-K1 fragment of human tPA with C-terminal GST tag
Aβ fibrils
  binding to Aβ fibers (pull-down, Western blot): Efficient binding

B2: K1-GST: K1 fragment of human tPA with C-terminal GST tag (protein)
chain: TRATCYEDQGISYRGTWSTAESGAECTNWNSSALAQKPYSGRRPDAIRLGLGNHNYCRNPDRDSKPWCYVFKAGKYSSEFCSTPACSE
modifications: left off: small tags and cut ends; a dimerising Fc or GST
notes: K1 fragment of human tPA with C-terminal GST tag
Aβ fibrils
  binding to Aβ fibers (pull-down, Western blot): remain in the supernatant
